Reference: patent publication US7070788

Experiments:
[1] = molecular target: hCG (LH/CG) receptor of MA-10 transformed murine Leydig cells (murine) (UniProt P30730); assay: cell-based or functional assay
[2] = molecular target: hCG (LH/CG) receptor of MA-10 transformed murine Leydig cells (murine) (UniProt P30730); assay: competitive binding with 125I-hCG on MA-10 cells
[3] = molecular target: human TSH receptor (CHO-JP09 cells) (human) (UniProt P16473); assay: cell-based or functional assay
[4] = molecular target: rat TSH receptor (FRTL-5 cells) (rat) (UniProt P21463); assay: cell-based or functional assay
[5] = molecular target: porcine TSH receptor (solubilized porcine thyroid membranes) (porcine) (UniProt Q8SPP9); assay: competitive displacement of 125I-bTSH from solubilized porcine thyroid membranes
[6] = molecular target: porcine TSH receptor (solubilized porcine thyroid membranes) (porcine) (UniProt Q8SPP9); assay: competitive binding assay to porcine thyroid membranes

Chain of rat TSH receptor (FRTL-5 cells) (rat) (P21463 22-764): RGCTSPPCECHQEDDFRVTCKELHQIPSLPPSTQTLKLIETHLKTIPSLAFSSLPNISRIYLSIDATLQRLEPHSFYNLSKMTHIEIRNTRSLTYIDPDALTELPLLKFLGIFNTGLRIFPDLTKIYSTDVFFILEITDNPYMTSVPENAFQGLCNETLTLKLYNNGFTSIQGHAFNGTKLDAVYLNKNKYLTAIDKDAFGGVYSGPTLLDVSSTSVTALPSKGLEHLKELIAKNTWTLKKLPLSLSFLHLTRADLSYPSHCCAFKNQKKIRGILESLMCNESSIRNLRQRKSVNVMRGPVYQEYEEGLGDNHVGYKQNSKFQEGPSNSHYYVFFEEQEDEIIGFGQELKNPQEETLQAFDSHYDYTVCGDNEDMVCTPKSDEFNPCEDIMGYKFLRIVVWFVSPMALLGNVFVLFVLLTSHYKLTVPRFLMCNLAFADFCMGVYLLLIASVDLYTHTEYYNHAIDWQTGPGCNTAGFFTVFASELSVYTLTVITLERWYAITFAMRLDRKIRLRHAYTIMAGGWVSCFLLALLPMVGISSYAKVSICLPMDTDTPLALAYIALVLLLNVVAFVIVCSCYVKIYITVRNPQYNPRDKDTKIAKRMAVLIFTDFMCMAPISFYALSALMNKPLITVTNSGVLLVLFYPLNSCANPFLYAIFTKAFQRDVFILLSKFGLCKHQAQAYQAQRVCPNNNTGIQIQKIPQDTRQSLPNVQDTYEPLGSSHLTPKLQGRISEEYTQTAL
Chain of porcine TSH receptor (solubilized porcine thyroid membranes) (porcine) (Q8SPP9 22-764): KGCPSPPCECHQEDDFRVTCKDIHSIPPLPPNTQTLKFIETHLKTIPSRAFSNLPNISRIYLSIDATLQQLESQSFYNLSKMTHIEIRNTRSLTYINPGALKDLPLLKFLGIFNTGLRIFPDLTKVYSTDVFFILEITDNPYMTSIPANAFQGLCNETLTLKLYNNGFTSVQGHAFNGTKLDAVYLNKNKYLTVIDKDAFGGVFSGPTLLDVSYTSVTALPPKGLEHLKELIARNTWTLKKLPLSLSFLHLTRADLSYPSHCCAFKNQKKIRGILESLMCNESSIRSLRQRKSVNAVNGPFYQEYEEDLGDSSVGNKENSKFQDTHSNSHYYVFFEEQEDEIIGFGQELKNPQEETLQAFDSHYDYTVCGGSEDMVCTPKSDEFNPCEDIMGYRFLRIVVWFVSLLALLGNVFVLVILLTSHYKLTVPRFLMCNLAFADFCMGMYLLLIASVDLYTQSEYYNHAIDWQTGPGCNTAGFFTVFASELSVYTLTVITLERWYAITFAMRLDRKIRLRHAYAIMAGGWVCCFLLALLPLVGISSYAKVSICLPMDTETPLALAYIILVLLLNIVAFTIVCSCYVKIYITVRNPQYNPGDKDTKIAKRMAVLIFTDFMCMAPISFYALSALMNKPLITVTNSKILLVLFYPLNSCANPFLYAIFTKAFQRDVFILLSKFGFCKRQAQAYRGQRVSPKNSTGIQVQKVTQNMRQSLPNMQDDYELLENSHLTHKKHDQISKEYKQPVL
Chain of hCG (LH/CG) receptor of MA-10 transformed murine Leydig cells (murine) (P30730 27-700): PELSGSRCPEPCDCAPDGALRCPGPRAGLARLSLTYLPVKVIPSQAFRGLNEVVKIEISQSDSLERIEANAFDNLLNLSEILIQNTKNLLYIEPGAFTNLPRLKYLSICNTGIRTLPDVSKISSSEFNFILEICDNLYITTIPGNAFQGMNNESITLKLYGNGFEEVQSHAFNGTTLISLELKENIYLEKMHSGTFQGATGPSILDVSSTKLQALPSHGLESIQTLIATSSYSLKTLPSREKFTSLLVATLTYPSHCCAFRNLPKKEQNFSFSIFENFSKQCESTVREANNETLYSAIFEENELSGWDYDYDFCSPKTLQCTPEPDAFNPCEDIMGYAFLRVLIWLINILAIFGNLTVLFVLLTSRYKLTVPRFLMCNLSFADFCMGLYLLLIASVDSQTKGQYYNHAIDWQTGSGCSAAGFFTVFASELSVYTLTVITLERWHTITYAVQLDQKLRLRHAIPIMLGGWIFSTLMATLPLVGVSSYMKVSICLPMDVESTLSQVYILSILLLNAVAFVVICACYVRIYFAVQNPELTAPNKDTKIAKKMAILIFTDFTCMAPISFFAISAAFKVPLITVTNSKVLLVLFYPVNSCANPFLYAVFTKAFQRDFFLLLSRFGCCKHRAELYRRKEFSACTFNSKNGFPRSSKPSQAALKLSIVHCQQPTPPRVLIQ

Substance | Progesterone synthesis in MA10 cells, EC50 [1] | Progesterone synthesis in MA10 cells, Max (%) [1] | cAMP stimulation in JP09 cells, EC50 [3] | cAMP stimulation in JP09 cells, Relative potency (WT = 1) (fold (WT = 1)) [3] | EC25 of inhibition of 125I-bTSH binding [5] | other results
hCG α-subunit mutant P16K with WT-hCGβ (from UniProt P01215 25-116; P0DN86 21-165) (ligand) | 2.05 ng/mL | 161 % of WT-hCG |  |  |  | progesterone release assay, fold potency over wild type [1]: 3.4 fold; stimulation of progesterone production in MA-10 cells, fold over WT-hCG [1]: 4 fold; fold receptor binding activity over WT-hCG [2]: 4 fold
hCG α-subunit mutant Q13K (from UniProt P01215 25-116; P0DN86 21-165) (ligand) | 2.46 ng/mL | 115 % of WT-hCG |  |  |  | 
hCG α-subunit mutant Q20K (from UniProt P01215 25-116; P0DN86 21-165) (ligand) | 2.98 ng/mL | 134 % of WT-hCG |  |  |  | 
hCG α-subunit mutant Q50P (from UniProt P01215 25-116; P0DN86 21-165) (ligand) | 3.9 ng/mL | 137 % of WT-hCG |  |  |  | 
hCG α-subunit mutant T11K (from UniProt P01215 25-116; P0DN86 21-165) (ligand) | 2.79 ng/mL | 156 % of WT-hCG |  |  |  | 
hCG α-subunit quadruple mutant Q13K + P16K + Q20K + E14K (from UniProt P01215 25-116; P0DN86 21-165) (ligand) | 1.65 ng/mL | 205 % of WT-hCG |  |  |  | 
hCG α-subunit triple mutant Q13K + P16K + Q20K (from UniProt P01215 25-116; P0DN86 21-165) (ligand) | 1.58 ng/mL | 216 % of WT-hCG |  |  |  | 
hTSH mutant TSHβ-L69R + α Q13K + P16K + Q20K (from UniProt P01215 25-116; P01222 21-132) (ligand) |  |  | 0.19 ng/mL | 35.3 | 1.8 ng/mL | fold lower concentration than WT-hTSH for half-maximal stimulation of 3H-thymidine incorporation in FRTL-5 cells [4]: 27 fold
hTSH α-subunit mutant P16K (from UniProt P01215 25-116; P01222 21-132) (ligand) |  |  | 1.05 ng/mL | 6.4 | 18.3 ng/mL | fold greater affinity than WT-hTSH [6]: 5 fold
hTSH α-subunit mutant P16K + F17T (from UniProt P01215 25-116; P01222 21-132) (ligand) |  |  | 3.52 ng/mL | 1.9 |  | 
hTSH α-subunit mutant Q13K (from UniProt P01215 25-116; P01222 21-132) (ligand) |  |  | 1.89 ng/mL | 3.5 | 22.5 ng/mL | 
hTSH α-subunit mutant Q20K (from UniProt P01215 25-116; P01222 21-132) (ligand) |  |  | 1.16 ng/mL | 5.8 | 21.3 ng/mL | 
hTSH α-subunit mutant Q50P (from UniProt P01215 25-116; P01222 21-132) (ligand) |  |  | 5.54 ng/mL | 1.2 | 77.5 ng/mL | 
hTSH α-subunit mutant R67K (from UniProt P01215 25-116; P01222 21-132) (ligand) |  |  | 7.36 ng/mL | 0.9 | 62.5 ng/mL | 
hTSH α-subunit quadruple mutant Q13K + P16K + Q20K + E14K (from UniProt P01215 25-116; P01222 21-132) (ligand) |  |  | 0.17 ng/mL | 39.4 | 2.1 ng/mL | efficacy (maximal response) of cAMP stimulation in CHO-JP09 cells, fold over WT-hTSH [3]: 1.5 fold
hTSH β-subunit mutant E63R (from UniProt P01215 25-116; P01222 21-132) (ligand) |  |  |  |  |  | potency relative to hTSH [3]: 2 to 4 fold; potency relative to hTSH [4]: 2 to 4 fold
hTSH β-subunit mutant I58R (from UniProt P01215 25-116; P01222 21-132) (ligand) |  |  |  |  |  | potency relative to hTSH [3]: 2 to 4 fold; potency relative to hTSH [4]: 2 to 4 fold
hTSH β-subunit mutant I58R+E63R (from UniProt P01215 25-116; P01222 21-132) (ligand) |  |  |  |  |  | efficacy relative to wild type hTSH (cAMP stimulation, FIG. 2g) [3]: 1.5 fold; potency relative to wild type hTSH (cAMP stimulation, FIG. 2g) [3]: 15 fold
hTSH β-subunit mutant I58R+E63R+L69R (from UniProt P01215 25-116; P01222 21-132) (ligand) |  |  |  |  |  | efficacy relative to wild type hTSH (cAMP stimulation, FIG. 2g) [3]: 1.7 fold; potency relative to wild type hTSH (cAMP stimulation, FIG. 2g) [3]: 50 fold

Further lines, with some results ahead:

Progesterone synthesis in MA10 cells, EC50 [1] | Progesterone synthesis in MA10 cells, Max (%) [1] | cAMP stimulation in JP09 cells, EC50 [3] | cAMP stimulation in JP09 cells, Relative potency (WT = 1) (fold (WT = 1)) [3] | EC25 of inhibition of 125I-bTSH binding [5] | Substance | other results
1.7 ng/mL | 212 % of WT-hCG |  |  |  | hCG α-subunit double mutant P16K + Q20K (from UniProt P01215 25-116; P0DN86 21-165) (ligand) | 
4.6 ng/mL | 145 % of WT-hCG |  |  |  | hCG α-subunit mutant R67K (from UniProt P01215 25-116; P0DN86 21-165) (ligand) | 
 |  | 0.07 ng/mL | 95.7 | 1.3 ng/mL | hTSH mutant TSHβ-L69R + α Q13K + P16K + Q20K + E14K (from UniProt P01215 25-116; P01222 21-132) (ligand) | efficacy (maximal response) of cAMP stimulation in CHO-JP09 cells, fold over WT-hTSH [3]: 1.5 fold
 |  | 0.57 ng/mL | 11.8 | 6.4 ng/mL | hTSH α-subunit double mutant P16K + Q20K (from UniProt P01215 25-116; P01222 21-132) (ligand) | 
 |  | 4.47 ng/mL | 1.5 | 68.3 ng/mL | hTSH α-subunit mutant T11K (from UniProt P01215 25-116; P01222 21-132) (ligand) | 
 |  | 0.28 ng/mL | 23.9 | 2.3 ng/mL | hTSH α-subunit triple mutant Q13K + P16K + Q20K with WT-hTSHβ (from UniProt P01215 25-116; P01222 21-132) (ligand) | fold lower concentration than WT-hTSH for half-maximal stimulation of 3H-thymidine incorporation in FRTL-5 cells [4]: 18 fold
 |  | 2.75 ng/mL | 2.4 |  | hTSH β-subunit mutant TSHβ-L69R (from UniProt P01215 25-116; P01222 21-132) (ligand) | 
